The series is described as follows: soluble on expression in E. coli; label from the status in PepcDB or PDB records.
Turning to “MELWRQCTHWLIQCRVLPPSHRVTWEGAQVCELAQALRDGVLLCQLLNNLLPQAINLREVNLRPQMSQFLCLKNIRTFLSTCCEKFGLKRSELFEAFDLFDVQDFGKVIYTLSALSWTPIAQNKGIMPFPTEDSALNDEDIYSGLSDQIDDTAEEDEDLYDCVENEEAEGDEIYEDLMRLESVPTPPKMTEYDKRCCCLREIQQTEEKYTDTLGSIQQHFMKPLQRFLKPQDMETIFVNIEELFSVHTHFLKELKDALAGPGATTLYQVFIKYKERFLVYGRYCSQVESASKHLDQVATAREDVQMKLEECSQRANNGRFTLRDLLMVPMQRVLKYHLLLQELVKHTQDATEKENLRLALDAMRDLAQCVNEVKRDNETLRQITNFQLSIENLDQSLANYGRPKIDGELKITSVERRSKTDRYAFLLDKALLICKRRGDSYDLKASVNLHSFQVRDDSSGERDNKKWSHMFLLIEDQGAQGYELFFKTRELKKKWMEQFEMAISNIYPENATANGHDFQMFSFEETTSCKACQMLLRGTFYQGYRCYRCRAPAHKECLGRVPPCGRHGQDFAGTMKKDKLHRRAQDKKRNELGLPKMEVFQEYYGIPPPPGAFGPFLRLNPGDIVELTKAEAEHNWWEGRNTATNEVGWFPCNRVHPYVHGPPQDLSVHLWYAGPMERAGAEGILTNRSDGTYLVRQRVKDTAEFAISIKYNVEVKHIKIMTSEGLYRITEKKAFRGLLELVEFYQQNSLKDCFKSLDTTLQFPYKEPERRAISKPPAGSTKYFGTAKARYDFCARDRSELSLKEGDIIKILNKKGQQGWWRGEIYGRIGWFPSNYVEEDYSEYC”, the “soluble on expression in E. coli” value was “soluble”.
The entry for “MLTSHFPLPFAGHRLHIVDFDASSFREHDLLWLPHHDRLRSAGRKRKAEHLAGRIAAVHALREVGVRTVPGMGDKRQPLWPDGLFGSISHCATTALAVISRQRIGIDIEKIMSQHTATELAPSIIDSDERQILQASLLPFPLALTLAFSAKESVYKAFSDRVTLPGFNSAKVTSLTATHISLHLLPAFAATMAERTVRTEWFQRDNSVITLVSAITRVPHDRSAPASILSAIPR” is “not soluble”; for “MLIRKITRKNPSPDVLEEAISVMEGGGIVIYPTDTIYGLGVNALDEDAVRRLFRVKGRSPHKPVSICVSCVDEIPRFSRPSGDAMELMERILPGPYTVVLERNELIPDVITGGSSRVGIRVPDDEICRRIAARFPVTATSANISGKPPSPRLEEIVRDLDAVDLVLDAGDCLDMEPSTVIDLTVNPPRVLRRGKGPLDPVLLRGAGDV” it is “soluble”.
Under “MGSSHHHHHHSSGLVPRGSHMASKNVSIIGSPLAAGQPLGGVQLACDDLRKLGLHNVIDVLGWKYEDIGNIDNGDNEMKQEKKTNNYINNNDNNNDNNNDNNNDNNNNCYIPNGVIKEKKHDLSNNKMNGYVNHNFYGNYEENNVISTNDKYKNNCYYDNIRNIKEIGIFSKNLFDTMSNELRKKNFVLNIGGDHGVAFSSILSSLQMYQNLRVIWIDAHGDINIPETSPSGNYHGMTLAHTLGLFKKKVPYFEWSENLTYLKPENTAIIGIRDIDAYEKIILKKCNINYYTIFDIEKNGIYNTICTALEKIDPNSNCPIHISLDIDSVDNVFAPGTGTVAKGGLNYREINLLMKILAETKRVVSMDLVEYNPSLDEVDKKVHGDSLPILDNATKTGKLCLELIARVLGYDIV” stands “soluble”; under “MSLHDLLLRNVRPMAGEACDIMIRNGKITGFGKFDAEPGLPVEDGKGAIAVPGLIDAHTHLDKTTWGMPWHVNNRAAILRERIDFERENRVQIGIDPHRQSMRHAIGLAANGGTHIRSHVDIDPTHGLKLVEGIWETREKLDGIIDIEVVAFPQSGVMVMPGTVELLDEALKQGCEVLGGIDPCGIDRDPKGQLDILFQLATKHGVPIDIHLHEAADLGAFTMELIFERIRANGMQGNVAISHAFALGMNDYLRVGRLIDEIARLDVAILTTGAPSASVPSIMRLKEAGVRVGGGCDGIRDTWGPWGQPDMLDRAKIIGMKNGLRSDVELAHVLHVVSRGGADVMGIEDYGMEIGCAADFTLLTGETLAHAVVDITPRPLVVKGGRVTARNGKAIVEAPEGHHHHHH”, “not soluble”.
The entry for “MSFWRVFLFGLFLTPPAAACDLALALAVDVSGSVDEGEYRTQMDGLAHALRDPVVSEALVRAEAQLMLVQWTGSDRQRVTIPWTQASSFDALDRFADRVAADPRIWRNYSTAIGEALEVTMAAFAQVPDCARHLIDVSGDGPSNEGIEPLAVHRDLRALGITVNAIAIEQSEPDLTAYFYENVIVGEGAFVETANGFADYPARIRKKLLREVTQQTAALDLEHHHHHH” is “not soluble”; for “GHMGEEQYNRYQQYGAEECVLQMGGVLCPRPGCGAGLLPEPDQRKVTCEGGNGLGCGFAFCRECKEAYHEGECSAVFEAS” it is “soluble”; for “MSLGAIVEVITIKNYSLKSENYEAEIDIPKIRGLKDKNLEQRLNSSFMEDGKRLYHQFQERMEKIQSSKNKGYKSLSLSYSVKNNSKKFLSIEMTKNEIEASSYVSKVHYTIDKKRQIVLTLPMLFKDDKYIKVISDNIKEQMREQMKKDSTKSYFIDQKKDLPVEDFKTINKYQDFYFNKNEDLVICFDEYEVAPGYMGAVEFVIPYKVIKDEGHHHHHH” it is “soluble”.
Regarding “SLREMKHLRSIEQEIKMSIPSQEVPTIEDVVEKQKESWKKQIAHRIEKGSNQKHLFEQMTEELMAEYDSKEVISALLQLNYAMDTAPEDAGYSFGETGGAKGMVRFFINVGRNVNMSPKILVEEIAELVGIPGKAIGRIDIFEKFTFVEVPEEVAPFVYEALRYSRINGARVNLEPAKPRPKRESQRRTFQK”, the “soluble on expression in E. coli” value is listed as “soluble”.
Under “MGSDKIHHHHHHMYNVQTYKEKISRFEEVCFNWELKRASIVLNKRFSSYNSSAKVLLDAGFSLYAAKIEVCRELNNGEELERQYTYRSIAEGTLSEKDFKYIWEQCMSGSGNQTSILTIDEHFYSVQTELDKGWEKSCIVFYDKNEPIGMSIPHIETGTESEGRLFYFGVMLYYRGKGIASRLHLQSLHMLKEMGATYYIGSTHTSNEKMQRIFWRNNCSLKTEIELYYKIFNEG” stands “not soluble”; under “PTPPNWNMTSSGLEVKSPGDGILTPGENMELVAAVCSACHSLHMVTQQGLSRQRWDESLDWMIEEQGMEDLSGDDREAILEYLSTYYGG”, “not soluble”; under “GGWGFLASFAAGIGLRHAEVATLGRASAPAEAQAAAADVREAGQASGAIEYGADRSEHPKVAAGAVMLDVLSFGNLLERSLEVLLVTLLGAMLYQHWDWRA”, “not soluble”.
The entry for “MRVVVCGGGVIGACAAYFLRRRGIDVTVVERTEVAAAASGKAGGFLARDWCTGTPLDALARRSFALHAQLPEDISGDWGYRPMTAYSGFVASDGDARRDAPSALGWLSDGVVIAQRIGTAETTAIVHPRKFTSAVMNAALAQGAELRPGRVTGITRGTDGMTAGGVEIDGDLVEADAVVIAMGPWSLLAAQWMSLPPVYGQRSPSIVYDTAADAPAEALFLESEEDGSAVSIEVFPRADGSTHITALSDIAPLPLDPAAVTPDRDAIARLQTVSERLSPLFRPERIIAQQACFRPVTQDGLPLIGKVPRSDGLYVATGHNVWGILNAPATGEALAELIAEGATREIDLSPFDPARLTPLDPSLLQARLEHHHHHH” is “not soluble”; for “MNAPDKTGTDRRAVPAAVDLDALIRAEHRDPFSILGPHDDGKGGQYVRAYLPAALSVRLLARDDGRELAELHMSDVPGFFVGHLEQPQPYLLKINWAGGEQITEDPYSYGPLLG” it is “not soluble”; for “SLGFIMKLTKTALCTALFATFTFSANAQTYPDLPVGIKGGTGALIGDTVYVGLGSGGDKFYTLDLKDPSAQWKEIATFPGGERNQPVAAAVDGKLYVFGGLQKNEKGELQLVNDAYRYNPSDNTWMKLPTRSPRGLVGSSGASHGDKVYILGGSNLSIFNGFFQDTVAAGEDKAKKDEIAAAYFDQRPEDYFFTTELLSYEPSTNKWRNEGRIPFSGRAGAAFTIQGNELVVVNGEIKPGLRTAETHQGKFTAKGVQWKNLPDLPAPKGKSQDGLAGALSGYSNGHYLVTGGANFPGSIKQFKEGKLHAHKGLSKAWHNEVYTLNNGKWRIVGELPMNIGYGFSVSYNNKVLLIGGETDGGKALTSVKAISYDGKKLTIE” it is “not soluble”.
The entry for “MGSDKIHHHHHHMSEIEAQLPVIHFADAKTFETWIAEQGSDCKGLWVKFAKKASGIASITPREALDVALCYGWIDGQRIGSDSDFYLNKYTPRRARSRWSQVNCARATELIAEGRMTPRGLAEVERARTDGRWDAAAPPPSKATVPDDLHDALAQNAAAKMLFDELDSRNRYAILFRIHDAKKSETRAARIEKYVGMLARGETPYPRRKAR” is “not soluble”; for “SSRFSITYKHDFYGGVEGEVTGGSALLCCPQEDIKSFLSEPVYSRLCASAWALTIECPSDPRTPSGTPGPLGTVPWRWGSLGMGGPLLPTAPTPRERERRGGQPAQRWSAEEGQEGSADGEAEATQELILAVVQEGAEGQCQGQGRKLLLQRGAHDPVTVHRAFKKEVGLGQVQLIPKGGTGVLHPGAGLKLHTHLQLVTGFVVIRRMHACLAQRYCSQPVVQCVFPS” it is “soluble”.
In the case of “MLRTICKQHTALPDKSIRKLEKIAEGLTVLSKLLKADIFIDCPTGINDAAIVVAEANPETGSSYTQSVVGQYAYRKNEPAVLRTLETGLPSRDYKALTQENTLVRQNVVPIKNEKEEVIGVLIVEEGSNDTGLNKELNFLHDATNELLRSSMEMTKEQKIIDYINDGIIIFNEKGILIYANSKAKNIYKKIGYKHNILGTKFSNIVLNNIAFKDVLDGIIPGSSDIHIAKMDLNIHYYLIKESKNVKNVVLFIKDLTEIKEKEKELILKSVAIKEIHHRVKNNLQTIASLLRIQARKTEDEAVRQAFNESINRILSIAVTHEILAQNGLDDLKIKEMFSKILKNSIRASIGENLDLKTSISGDDFKINSDKSTSIALIANELVQNSITHGFKGMTSGKIDITVKQGKIKSKVTIADNGVGFKSKDFKNESLGLQIVKSLVKEKLFGTIDIKSTKNGTIIVFDFEN”, the “soluble on expression in E. coli” value is on record as “not soluble”.
As to “MTEISPKILETSSEPPPKKKRANFTLEFKNEVIRFAEQTNNCQAQKKYGVARACIQRWRHLKHELAFESEGKQGAKRLGGAGRPLKNVELDEKVEDWIASKNGKISGKDIKEYAKKINGNADFKASNGWLQRFMIRHGLIKARSSSPKTPSTSDGTTDKTLEESLFELINSDEWKNISEGNVSGFLEDFNAENGETSLKVEGNNSTTTESEVKQKPNESSKLPEINIFQQLEMLIKDSNGKEDSVEETETSVNRSPKSY”, the “soluble on expression in E. coli” value is given as “not soluble”.
Regarding “MDPKAEGNGENITETAAGNVETSDFVNLKRQKREGVNSTGMSEIDMTGSQETPEHNMHGSPTHTDDLGPRLDADMLDSQSSHVSSSAQGNRSEVENELSNLFAKMALPGHDRRTDEYILVRQTGQDKFAGTTKCNLDHLPTKAEFNASCRLYRDGVGNYYPPPLAFERIDLPEQLAAQLHNLEPREQSKQCFQYKLEVWNRAHAEMGITGTDIFYQTDKNIKLDRNYKLRPEDRYIQTEKYGRREIQKRYEHQFQAGSLLPDILIKTPQNDIHFSYRFAGDAYANKRFEEFERAIKTKYGSDTEIKLKSKSGIMHDSKYLESWERGSADIRFAEFAGENRAHNKQFPAATVNMGRQPDGQGGMTRDRHVSVDYLLQNLPNSPWTQALKEGKLWDRVQVLARDGNRYMSPSRLEYSDPEHFTQLMDQVGLPVSMGRQSHANSVKFEQFDRQAAVIVADGPNLREVPDLSPEKLQQLSQKDVLIADRNEKGQRTGTYTNVVEYERLMMKLPSDAAQLLAEPSDRYSRAFVRPEPALPPISDSRRTYESRPRGPTVNSL”, the “soluble on expression in E. coli” value is given as “soluble”.
